T1: gfTP1 transposase (Tgf2 transposase, 686 aa, recombinant 720 aa) (Carassius auratus)
T1 sequence: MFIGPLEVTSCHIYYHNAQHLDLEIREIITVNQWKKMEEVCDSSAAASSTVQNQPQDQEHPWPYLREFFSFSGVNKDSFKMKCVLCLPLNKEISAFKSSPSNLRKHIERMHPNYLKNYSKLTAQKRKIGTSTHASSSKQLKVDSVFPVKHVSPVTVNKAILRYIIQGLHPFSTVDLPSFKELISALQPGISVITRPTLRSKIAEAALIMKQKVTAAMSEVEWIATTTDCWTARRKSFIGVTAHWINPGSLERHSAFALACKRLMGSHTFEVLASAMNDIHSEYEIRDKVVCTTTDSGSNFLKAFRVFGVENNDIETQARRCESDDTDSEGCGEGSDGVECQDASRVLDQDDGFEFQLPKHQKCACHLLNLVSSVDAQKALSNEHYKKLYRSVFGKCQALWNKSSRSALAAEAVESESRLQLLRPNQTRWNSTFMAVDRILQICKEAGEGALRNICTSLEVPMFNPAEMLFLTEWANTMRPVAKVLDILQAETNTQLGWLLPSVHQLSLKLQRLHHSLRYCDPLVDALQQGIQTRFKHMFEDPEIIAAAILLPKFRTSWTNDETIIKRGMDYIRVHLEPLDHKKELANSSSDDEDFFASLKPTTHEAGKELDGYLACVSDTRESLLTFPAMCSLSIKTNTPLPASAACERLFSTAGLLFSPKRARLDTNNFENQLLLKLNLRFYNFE

T2: gfTP1 transposase (Tgf2 transposase, 686 aa, recombinant 720 aa) (Carassius auratus)
T2 chain: T1 sequence

B1: Tgf2 right end 50 bp probe (dsDNA)
DNA 1: CAGAGGTGTAAAAGTACTAAAAATATTTACTAAAGTGAAAGTACAAGTAT
DNA 2: ATACTTGTACTTTCACTTTAGTAAATATTTTTAGTACTTTTACACCTCTG
B2: Tgf2 left end 50 bp probe (dsDNA)
DNA 1: CAGAGGTGTAAAAGTACTTAAGTAATTTTACTTGATTACTGTACTTAAGT
DNA 2: ACTTAAGTACAGTAATCAAGTAAAATTACTTAAGTACTTTTACACCTCTG

Experiments:
[1] = tested on: T1, gfTP1 transposase (Tgf2 transposase, 686 aa, recombinant 720 aa) (Carassius auratus); experiment: cell_activity; details: genomic integration rate in one-year-old blunt snout bream (35/77) vs 10% with donor plasmid only; 8-bp direct repeats at insertion sites
[2] = molecular target: T2, gfTP1 transposase (Tgf2 transposase, …); experiment: EMSA; 25 C, 0.5-1 h; 1x protein shifts probe, 10x gives slower complex (oligomer); control cold probe no signal; details: tags: N-terminal 34 aa His6-containing tag from pET-28a, E. coli Rosetta 1(DE3); label: biotin
Description: The 50 by sequences of left and right ends of goldfish Tgf2 transposon labeled by biotin were used as probes. The DNA binding activity was verified by EMSA, using non-denaturing polyacrylamide gel electrophoresis at 80 V for 1.0 h. Lane 1: biotin-labeled probes based on left (or right) end; Lane 2: the supernatant of cells without IPTG induction; Lane 3: co-incubation complex of biotin-labeled cold probes for control and the purified recombinant goldfish gfTP1 transposase; Lane 4: co-incubation complex of biotin-labeled probes based on Tgf2 left (or right) end and the purified 1× recombinant goldfish gfTP1 transposase; Lane 5: co-incubation complex of biotin-labeled probes based on Tgf2 left (or right) end and the purified 10× recombinant goldfish gfTP1 transposase.

Molecule | activity [1] | binding result [2]
donor plasmid pTgf2-zfβ-actin-eGFP | 45% | 
B1 |  | binds
B2 |  | binds

Reference: US20160215299, “EXPRESSION METHOD OF ACTIVE GOLDFISH TGF2 TRANSPOSON RECOMBINANT TRANSPOSASE PROTEIN” (Shanghai Ocean University, published 2016)
